Data set [1] deals with T1, FOXO1 FKH L183P (UniProt Q12778 151-265, L183P). Put plainly: EMSA. Background: A gel shift assay detects complexes by their altered migration in electrophoresis.
For data set [2], the target named is T1, FOXO1 FKH L183P. Put plainly: EMSA. The source holds these as a separate data set.

Usually Kd stands for the equilibrium constant for the complex coming apart. Lower therefore signals a tighter complex.

Read-outs that look alike come from different tables or passages of the source.

T1 sequence (Q12778 151-265 L183P): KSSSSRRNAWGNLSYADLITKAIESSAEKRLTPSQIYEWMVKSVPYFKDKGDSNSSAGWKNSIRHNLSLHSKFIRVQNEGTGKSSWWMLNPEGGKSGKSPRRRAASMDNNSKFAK

B1: dsIRE (dsDNA)
DNA 1: TAAGCTAGTGGTTTGTTTTGCTTGCTAGCAAT
DNA 2: ATTGCTAGCAAGCAAAACAAACCACTAGCTTA
For the molecule B1, the Kd in the data set with FOXO1 FKH L183P [1] is 460 ± 100 nM.

B2: dsDBE2 (dsDNA)
DNA 1: TAAGCTAGTCTTGTTTACATTTTGCTAGCAAT
DNA 2: ATTGCTAGCAAAATGTAAACAAGACTAGCTTA
B2: the dissociation constant (Kd) with FOXO1 FKH L183P [2] was found to be 230 nM.

These data come from paper PMC9482095.
